Molecular target: T1, human CD20 (human, UniProt P11836 1-297)
T1 construct: whole, on cells; Always presented on cells (fixed Ramos cells in ELISA; live cells in flow cytometry and KinExA-type assays); also called hCD20; Bp35
T1 sequence (looked up): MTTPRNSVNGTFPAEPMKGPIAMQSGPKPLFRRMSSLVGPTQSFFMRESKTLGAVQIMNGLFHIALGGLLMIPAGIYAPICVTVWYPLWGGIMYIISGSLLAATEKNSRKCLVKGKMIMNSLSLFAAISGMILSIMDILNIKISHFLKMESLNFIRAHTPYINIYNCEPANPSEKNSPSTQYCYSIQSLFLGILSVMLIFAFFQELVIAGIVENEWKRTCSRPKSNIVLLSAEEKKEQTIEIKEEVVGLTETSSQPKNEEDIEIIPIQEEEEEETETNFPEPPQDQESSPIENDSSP
Assay: ELISA on formalin-fixed Ramos cells, off-rate format: after the Fab incubation the plate stood overnight in PBS/BSA before anti-His6 peroxidase, OD 450
Experimental: Ramos cells (ATCC) were grown in RPMI 1640 containing 10% heat inactivated Fetal Bovine Serum. […] Media was gently aspirated and […] of aqueous buffered zinc formalin (Anatech, Ltd.) was added to each well for 15 minutes at room temperature. Z-fix was removed and the plate was washed with phosphate-buffered saline (PBS) containing 0.05% Tween 20. The plate was blocked for 1 hour with 1% bovine serum albumin (BSA) in PBS. Dilutions of Fab or IgG were incubated with the fixed and blocked Ramos cells for 1 hour at room temperature. The plate was washed 3× with PBS 0.05% Tween […] of anti-His6 Peroxidase Mouse Monoclonal Antibody (Roche Diagnostics Corporation) at a 1:500 dilution were added to the wells and incubated 1 hour at room temperature. The plate was washed as above and developed with tetramethyl benzidine, and the reaction was stopped with 5N H₂SO₄. The plate absorbance was read at OD 450 nm. Dilutions of Fab and conjugate were in 1% BSA/PBS.
IgG assays were performed similarly except IgG bound was detected with goat anti-human IgG-HRP. To compare antibody off-rate, after incubation with Fab or IgG the plates were incubated over night in PBS/BSA, before proceeding with the second antibody step. To compare antibody on-rate, incubation steps for Fab/IgG binding and with the second antibody were both of 5 minutes duration.

EC50 (read off the curve): ~0.3 µg/mL
B1: AME 33 Fab (Fab, V domains shown)
VH: EVQLVQSGAEVKKPGESLKISCKGSGRTFTSYNMHWVRQMPGKGLEWMGAIYPLTGDTSYNQKSKLQVTISADKSISTAYLQWSSLKASDTAMYYCARSTYVGGDWQFDVWGKGTTVTVSS
VL: EIVLTQSPGTLSLSPGERATLSCRASSSVPYIHWYQQKPGQAPRLLIYATSALASGIPDRFSGSGSGTDFTLTISRLEPEDFAVYYCQQWLSNPPTFGQGTKLEIK
notes: Fab
